Laboratory results: US20180250396A1 (FONDAZIONE IRCCS ISTITUTO NAZIONALE DEI TUMORI, published 2018)

How the values were obtained:
[1] = target: T1, Recombinant human TRAIL-R2 (R&D Systems) (human, UniProt O14763 54-182, limits assumed); test: SPR (BIAcore), recombinant TRAIL-R2 immobilised on a CM5 chip, 5 scDb concentrations from 400 to 25 nM
T1 construct: Bought recombinant protein, amine-coupled to a CM5 chip; also called TRAIL-R2 recombinant protein; recombinant receptor

[2] = target: T2, TRAIL-R2 on cells (TRAIL-R2+ human melanoma and other tumor cell lines) (human, UniProt O14763 56-440); test: soluble scFv on TRAIL-R2+ cells
T2 construct: whole, on cells; Endogenous receptor on cell lines; also called TRAIL-R2+ cells

[3] = target: T3, naive TRAIL-R2 captured from SU-DHL-4 cell lysate (human, UniProt O14763 56-440, limits assumed); test: single clone phage ELISA (scFv on phage), TRAIL-R2 captured from SU-DHL-4 lysate
T3 construct: also called naïve TRAIL-R2; natural TRAIL-R2

Binder	Kd [1]	binding result [2]	binding result [3]
scDb 16e2/hUCTH1 (bispecific antibody, Made in E. coli HB2151 periplasm; also called 16e2×hUCTH1 scDb; 16E2×hUCTH1 scDb) EVQLVQSGGGVERPGGSLRLSCAASGFTFDDYGMSWVRQAPGKGLEWVSGINWNGGSTGYADSVKGRVTISRDNAKNSLYLQMNSLRAEDTAVYYCAKILGAGRGWYFDLWGKGTTVTVSSTGGGGSDIQMTQSPSSLSASVGDRVTITCRASQDIRNYLNWYQQKPGKAPKLLIYYTSRLESGVPSRFSGSGSGTDYTLTISSLQPEDFATYYCQQGNTLPWTFGQGTKVEIKRGGGGSGGGGSGGGGSEVQLVESGGGLVQPGGSLRLSCAASGYSFTGYTMNWVRQAPGKGLEWVALINPYKGVSTYNQKFKDRFTISVDKSKNTAYLQMNSLRAEDTAVYYCARSGYYGDSDWYFDVWGQGTLVTVSSGGGGSRSELTQDPAVSVALGQTVRITCQGDSLRSYYASWYQQKPGQAPVLVIYGKNNRPSGIPDRFSGSSSGNTASLTITGAQAEDEADYYCNSRDSSGNHVVFGGGTKLTVLAAAHHHHHHGAAEQKLISEEDLNGAA	148 nM		
Clone 44 anti-TRAIL-R2 ScFv isolated with Phage Display (scFv, Tested on phage and as soluble scFv) scFv: QVHLRESGGGLVQPGRSLRLSCAASGFTFDDYAMHWVRQAPGKGLEWVSGISWNSGSISYADSVKGRFTISRDNAKNSLYLQMSSLRSEDTAVYYCARDPNHGGDRRDDALDMWGQGTMVTVSSGGGGSGGGGSGGGGSSELTQDPAVSVALGQTVRITCQGHSLRSYFASWYQQRPRQAPTLVIYGKNNRPSGIPDRFSGSSSGNTASLTITGAQAEDEADYYCGSRDSSSTHRGVFGGGTKLTVLGAA		binds	binds
Clone 8 anti-TRAIL-R2 ScFv isolated with Phage Display (scFv, Tested on phage and as soluble scFv) scFv: EVQLLESGGGLVQPGGSLRLSCAASGFTFSSYAMSWVRQAPGKGLEWVSAISQQGQVTDYADSVKGRFTISRDNSKNTLYLQMNSLRAEDTAVYYCAKRWNRFDYWGQGTLVIVSSGGGGSGGGGSGGGGSTDIQMTQSPSSLSASVGDRVTITCRASQSISSYLNWYQQKPGKAPKLLIYAASGLQSGVPSRFSGSGSGTDFTLTISSLQPEDFATYYCQQHSMSPNTFGQGTKVEIKRAA		binds	binds
